Laboratory results from PMC11027885, “Utilizing surface plasmon resonance as a novel method for monitoring in-vitro P-glycoprotein efflux” (Frontiers in biophysics, 2024).

Tested on: CCC(=O)C(CC(C)N(C)C)(c1ccccc1)c1ccccc1
Assay: purified protein, by the assay type
Conditions: other: 50 nM Pgp in liposomes; curve fit

mouse Pgp (Abcb1a, MDR3) (Mus musculus)
Km: 28 ± 10 µM
